The values that follow come from patent US20110207116A1 (University of California, published 2011).

Sequences and labels used below:
B1: PIF3APB-mYFP (other)
chain: MPLFELFRLTKAKLESAQDRNPSPPVDEVVELVWENGQISTQSQSSRSRNIPPPQANSSRAREIGNGSKTTMVDEIPMSVPSLMTGLSQDDDFVPWLNHH
notes: also called pAL100; PIF3-100NT; not shown: mYFP: EYFP with monomerizing A206K mutation
B2: PhyB(1-908)-10aaLinker-mCherry-Kras4BCT (other)
chain: MVSGVGGSGGGRGGGRGGEEEPSSSHTPNNRRGGEQAQSSGTKSLRPRSNTESMSKAIQQYTVDARLHAVFEQSGESGKSFDYSQSLKTTTYGSSVPEQQITAYLSRIQRGGYIQPFGCMIAVDESSFRIIGYSENAREMLGIMPQSVPTLEKPEILAMGTDVRSLFTSSSSILLERAFVAREITLLNPVWIHSKNTGKPFYAILHRIDVGVVIDLEPARTEDPALSIAGAVQSQKLAVRAISQLQALPGGDIKLLCDTVVESVRDLTGYDRVMVYKFHEDEHGEVVAESKRDDLEPYIGLHYPATDIPQASRFLFKQNRVRMIVDCNATPVLVVQDDRLTQSMCLVGSTLRAPHGCHSQYMANMGSIASLAMAVIINGNEDDGSNVASGRSSMRLWGLVVCHHTSSRCIPFPLRYACEFLMQAFGLQLNMELQLALQMSEKRVLRTQTLLCDMLLRDSPAGIVTQSPSIMDLVKCDGAAFLYHGKYYPLGVAPSEVQIKDVVEWLLANHADSTGLSTDSLGDAGYPGAAALGDAVCGMAVAYITKRDFLFWFRSHTAKEIKWGGAKHHPEDKDDGQRMHPRSSFQAFLEVVKSRSQPWETAEMDAIHSLQLILRDSFKESEAAMNSKVVDGVVQPCRDMAGEQGIDELGAVAREMVRLIETATVPIFAVDAGGCINGWNAKIAELTGLSVEEAMGKSLVSDLIYKENEATVNKLLSRALRGDEEKNVEVKLKTFSPELQGKAVFVVVNACSSKDYLNNIVGVCFVGQDVTSQKIVMDKFINIQGDYKAIVHSPNPLIPPIFAADENTCCLEWNMAMEKLTGWSRSEVIGKMIVGEVFGSCCMLKGPDALTKFMIVLHNAIGGQDTDKFPFPFFDRNGKFVQALLTANKRVSLEGKVIGAFCFLQIPSDSAGSAGSAGSKTKCVIM
modifications: phycocyanobilin (PCB) chromophore covalently bound; C-terminal CaaX prenylation sequence
notes: Expressed in NIH3T3 cells, localized to the plasma membrane; also called pAL149; PhyB908; not shown: mCherry fluorescent protein, amplified from a vector

The target in assay [1] is B2. The assay can be described thus: YFP membrane translocation in NIH3T3 cells, confocal microscopy.
Assay [2] deals with T1, PhyBFL-10aaLinker-mCherry-Kras4BCT (Arabidopsis thaliana, UniProt P14713 1-1172, phycocyanobilin (PCB) chromophore covalently bound; C-terminal CaaX prenylation sequence).
T1 construct: also called pAL162; PhyB full length; not shown: mCherry fluorescent protein, amplified from a vector
T1 sequence: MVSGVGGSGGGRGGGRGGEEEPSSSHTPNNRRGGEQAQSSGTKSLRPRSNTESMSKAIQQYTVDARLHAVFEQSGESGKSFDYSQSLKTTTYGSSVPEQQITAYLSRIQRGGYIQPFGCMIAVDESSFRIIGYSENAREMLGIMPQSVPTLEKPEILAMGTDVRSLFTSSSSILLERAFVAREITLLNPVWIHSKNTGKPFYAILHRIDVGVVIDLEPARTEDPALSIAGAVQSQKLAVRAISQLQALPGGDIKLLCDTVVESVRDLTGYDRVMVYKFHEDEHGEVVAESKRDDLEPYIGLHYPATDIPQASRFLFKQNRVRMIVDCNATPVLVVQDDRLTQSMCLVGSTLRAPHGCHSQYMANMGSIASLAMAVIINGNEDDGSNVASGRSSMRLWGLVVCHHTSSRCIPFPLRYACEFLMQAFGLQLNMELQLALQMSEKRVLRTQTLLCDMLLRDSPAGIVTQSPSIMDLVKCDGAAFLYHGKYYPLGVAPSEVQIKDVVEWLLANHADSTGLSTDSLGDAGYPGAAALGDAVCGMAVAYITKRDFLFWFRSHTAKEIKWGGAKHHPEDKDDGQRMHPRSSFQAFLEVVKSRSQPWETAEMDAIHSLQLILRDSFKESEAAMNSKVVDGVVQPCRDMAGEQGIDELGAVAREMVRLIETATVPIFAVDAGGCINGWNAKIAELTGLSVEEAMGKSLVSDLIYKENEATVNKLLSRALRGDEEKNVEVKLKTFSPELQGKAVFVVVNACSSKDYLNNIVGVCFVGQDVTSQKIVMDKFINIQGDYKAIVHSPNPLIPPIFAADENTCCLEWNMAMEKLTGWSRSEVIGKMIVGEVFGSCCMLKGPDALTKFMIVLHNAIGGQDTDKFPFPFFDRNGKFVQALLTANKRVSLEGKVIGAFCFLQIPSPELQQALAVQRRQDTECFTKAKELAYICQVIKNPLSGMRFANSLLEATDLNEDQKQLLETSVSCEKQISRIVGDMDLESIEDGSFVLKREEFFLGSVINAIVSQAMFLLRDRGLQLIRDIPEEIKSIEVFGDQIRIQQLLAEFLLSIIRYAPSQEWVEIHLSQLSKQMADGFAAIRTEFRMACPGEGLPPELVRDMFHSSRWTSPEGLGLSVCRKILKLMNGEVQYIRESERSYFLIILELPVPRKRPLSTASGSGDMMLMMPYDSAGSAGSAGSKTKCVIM
The assay is described as above.

Assay [3] concerns the target T2, PhyB(1-650)-Gal4DD-10aaLinker-mCherry-Kras4BCT (Arabidopsis thaliana; Saccharomyces …, UniProt P04386 50-106, phycocyanobilin (PCB) chromophore covalently bound; C-terminal CaaX prenylation sequence).
T2 construct: also called pAL148; not shown: mCherry fluorescent protein, amplified from a vector
Described as above.

Assay [4] deals with T3, PhyB(1-650)-10aaLinker-mCherry-Kras4BCT (Arabidopsis thaliana, UniProt P14713 1-650, phycocyanobilin (PCB) chromophore covalently bound; C-terminal CaaX prenylation sequence).
T3 construct: Expressed in NIH3T3 cells at the plasma membrane; also called pAL117; PhyB-NT; not shown: mCherry fluorescent protein, amplified from a vector
T3 sequence: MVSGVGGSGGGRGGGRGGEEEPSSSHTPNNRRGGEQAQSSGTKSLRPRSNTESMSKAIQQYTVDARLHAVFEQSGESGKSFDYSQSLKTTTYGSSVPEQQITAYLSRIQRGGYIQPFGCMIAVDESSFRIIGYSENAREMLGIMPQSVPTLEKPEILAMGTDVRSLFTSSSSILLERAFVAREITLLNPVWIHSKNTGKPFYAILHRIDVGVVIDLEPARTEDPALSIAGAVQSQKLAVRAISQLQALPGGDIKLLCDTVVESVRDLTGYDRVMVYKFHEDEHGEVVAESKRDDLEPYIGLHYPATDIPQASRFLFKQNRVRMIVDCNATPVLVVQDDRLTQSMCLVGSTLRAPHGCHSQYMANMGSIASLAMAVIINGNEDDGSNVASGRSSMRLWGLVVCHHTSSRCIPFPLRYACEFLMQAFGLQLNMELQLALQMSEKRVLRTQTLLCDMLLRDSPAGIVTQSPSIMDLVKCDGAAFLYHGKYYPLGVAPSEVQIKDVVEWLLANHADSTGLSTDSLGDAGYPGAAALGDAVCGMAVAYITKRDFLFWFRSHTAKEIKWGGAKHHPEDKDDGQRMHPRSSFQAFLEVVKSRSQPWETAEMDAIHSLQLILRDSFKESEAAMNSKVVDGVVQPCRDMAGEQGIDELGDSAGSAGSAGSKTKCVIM
The description is as above.

The target of assay [5] is T4, PhyB(1-450)-10aaLinker-mCherry-Kras4BCT (Arabidopsis thaliana, UniProt P14713 1-450, phycocyanobilin (PCB) chromophore covalently bound; C-terminal CaaX prenylation sequence).
T4 construct: Expressed in NIH3T3 cells at the plasma membrane; also called pAL161; PhyB-CBD; not shown: mCherry fluorescent protein, amplified from a vector
T4 sequence: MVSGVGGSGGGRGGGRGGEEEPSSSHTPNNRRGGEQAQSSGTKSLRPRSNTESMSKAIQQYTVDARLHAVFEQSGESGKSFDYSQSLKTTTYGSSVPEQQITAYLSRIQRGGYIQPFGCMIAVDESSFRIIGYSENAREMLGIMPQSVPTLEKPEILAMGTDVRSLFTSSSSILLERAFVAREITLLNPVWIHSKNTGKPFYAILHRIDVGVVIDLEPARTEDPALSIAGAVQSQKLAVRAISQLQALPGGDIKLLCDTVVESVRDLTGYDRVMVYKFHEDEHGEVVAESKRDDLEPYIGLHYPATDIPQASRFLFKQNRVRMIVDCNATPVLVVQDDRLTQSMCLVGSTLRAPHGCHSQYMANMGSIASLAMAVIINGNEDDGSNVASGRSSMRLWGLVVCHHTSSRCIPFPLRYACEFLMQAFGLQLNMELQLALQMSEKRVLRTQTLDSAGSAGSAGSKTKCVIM
The description is as above.

In assay [6] the target is T5, PIF6APB-mYFP-20aaLinker-Rac1(Q61L)ΔCT (Arabidopsis thaliana, UniProt P63000 1-188).
T5 construct: also called pAL105; Rac1(Q61L, no caax); not shown: mYFP: EYFP with monomerizing A206K mutation
Briefly: global light-activated membrane translocation in NIH3T3 cells, red light.

Regarding B1, the binding result in assay [1], in assay [2], in assay [3], in assay [4] and in assay [5] was “no binding” throughout.

In the case of B2, the binding result in assay [6] is recorded as “binds”.
